This is an account of results in US6689596B2, “High level expression of human cyclooxygenase-2” (Merck & Co., Inc., priority 1992, dated 2004).

The assay deals with osteosarcoma 143 cells. The assay is described as follows: PGE2 synthesis by osteosarcoma 143 cells in response to arachidonic acid after treatment with growth factors/cytokines. The settings on record: within a 3-hour period, 1% serum, relative to cells grown in the absence of these factors. It is filed as cell-based, human.

B1: IL1-α: human recombinant IL1-α (R and D systems Inc.) (protein, UniProt P01583 113-271, looked up)
Interleukin-1 alpha: SAPFSFLSNVKYNFMRIIKYEFILNDALNQSIIRANDQYLTAAALHNLDEAVKFDMGAYKSSKDDAKITVILRISKTQLYVTAQDEDQPVLLKEMPEIPKTITGSETNLLFFWETHGTKNYFTSVAHPNLFIATKQDYWVCLAGGPPSITDFQILENQA
In the case of B1, under “10 pg/ml”, the “levels of PGE2 synthesis by osteosarcoma 143 cells in response to arachidonic acid” value is on record as “increased”.

B2: EGF: human EGF (CALBIOCHEM) (protein, UniProt P01133 23-1207, looked up)
Pro-epidermal growth factor: PQHWSCPEGTLAGNGNSTCVGPAPFLIFSHGNSIFRIDTEGTNYEQLVVDAGVSVIMDFHYNEKRIYWVDLERQLLQRVFLNGSRQERVCNIEKNVSGMAINWINEEVIWSNQQEGIITVTDMKGNNSHILLSALKYPANVAVDPVERFIFWSSEVAGSLYRADLDGVGVKALLETSEKITAVSLDVLDKRLFWIQYNREGSNSLICSCDYDGGSVHISKHPTQHNLFAMSLFGDRIFYSTWKMKTIWIANKHTGKDMVRINLHSSFVPLGELKVVHPLAQPKAEDDTWEPEQKLCKLRKGNCSSTVCGQDLQSHLCMCAEGYALSRDRKYCEDVNECAFWNHGCTLGCKNTPGSYYCTCPVGFVLLPDGKRCHQLVSCPRNVSECSHDCVLTSEGPLCFCPEGSVLERDGKTCSGCSSPDNGGCSQLCVPLSPVSWECDCFPGYDLQLDEKSCAASGPQPFLLFANSQDIRHMHFDGTDYGTLLSQQMGMVYALDHDPVENKIYFAHTALKWIERANMDGSQRERLIEEGVDVPEGLAVDWIGRRFYWTDRGKSLIGRSDLNGKRSKIITKENISQPRGIAVHPMAKRLFWTDTGINPRIESSSLQGLGRLVIASSDLIWPSGITIDFLTDKLYWCDAKQSVIEMANLDGSKRRRLTQNDVGHPFAVAVFEDYVWFSDWAMPSVMRVNKRTGKDRVRLQGSMLKPSSLVVVHPLAKPGADPCLYQNGGCEHICKKRLGTAWCSCREGFMKASDGKTCLALDGHQLLAGGEVDLKNQVTPLDILSKTRVSEDNITESQHMLVAEIMVSDQDDCAPVGCSMYARCISEGEDATCQCLKGFAGDGKLCSDIDECEMGVPVCPPASSKCINTEGGYVCRCSEGYQGDGIHCLDIDECQLGEHSCGENASCTNTEGGYTCMCAGRLSEPGLICPDSTPPPHLREDDHHYSVRNSDSECPLSHDGYCLHDGVCMYIEALDKYACNCVVGYIGERCQYRDLKWWELRHAGHGQQQKVIVVAVCVVVLVMLLLLSLWGAHYYRTQKLLSKNPKNPYEESSRDVRSRRPADTEDGMSSCPQPWFVVIKEHQDLKNGGQPVAGEDGQAADGSMQPTSWRQEPQLCGMGTEQGCWIPVSSDKGSCPQVMERSFHMPSYGTQTLEGGVEKPHSLLSANPLWQQRALDPPHQMELTQ
modifications: Pro-epidermal growth factor
Turning to B2, where the note is “15 ng/ml”, the “levels of PGE2 synthesis by osteosarcoma 143 cells in response to arachidonic acid” value is “increased”.
